According to the supplement of paper PMC7877785:
± gives the uncertainty stated by the source.

Assay: self-splicing fitness, log relative to wild type (ln ratio); higher = more splicing; Tetrahymena group I intron in knt gene, E. coli kanamycin selection, DiMSum; sequences stand for … in CUCUCU…GGAGGGAAAAGUUAUCAGGCAUGCACCUGGUAGCUAGUCUUUAAACCAAUAGAUUGCAUCGGUUUAAAAGGCAAGACCGUCAAAUUGCGGGAAAGGGGUCAACAGCCGUUCAGUACCAAGUCUCAGGGGAAACUUUGAGAUGGCCUUGCAAAGGGUAUGGUAAUAAGCUGACGGACAUGGUCCUAACCACGCAGCCAAGUCCUAAGUCAACAGAUCUUCUGUUGAUAUGGAUGCAGUUCACAGACUAAAUGUCGGUCGGGGAAGAUGUAUUCUUCUCAUAAGAUAUAGUCGGACCUCUCCUUAAUGGGAGCUAGCGGAUGAAGUGAUGCAACACUGGAGCCGCUGGGAACUAAUUUGUAUGCGAAAGUAUAUUGAUUAGUUUUGGAGUACUCGUGGUCG
How it was run: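 Colonies from six replicate transformations of E. coli BL21(DE3) were pooled and amplicon-sequenced on an Illumina HiSeq 2500. The library placed an intron with all eight P1ex-region nucleotides randomised inside the knt kanamycin-resistance gene on pET-22b(+), and cells grew overnight at 37°C or 30°C on LB agar with or without 25 μg/mL kanamycin (plus 100 μg/mL carbenicillin, 50 μM IPTG, 0.2% rhamnose). Fitness is the DiMSum error-weighted combination of wild-type-normalised replicate fold changes, kanamycin versus none.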

| Sequence | self-splicing fitness (ln) (30 °C) | self-splicing fitness (ln) (37 °C) |
| --- | --- | --- |
| UUACAGCAAUAUUACGGAUG | -2.18 ± 0.1 | -0.325 ± 0.1 |
| AUGUAGCAAUAUUACGGGAG | -3.16 ± 0.29 | -2.64 ± 0.44 |
| UGUGAGCAAUAUUACGCACC | -1.27 ± 0.21 | -1.14 ± 0.22 |
| AUAAAGCAAUAUUACGACUC | -0.219 ± 0.075 | 0.324 ± 0.088 |
| CAACAGCAAUAUUACGCGUC | -3.55 ± 0.22 | -1.98 ± 0.13 |
| UGCAAGCAAUAUUACGAGGA | -3.28 ± 0.26 | -0.992 ± 0.14 |
| CGCAAGCAAUAUUACGCUAC |  | -2.82 ± 0.48 |
| GACUAGCAAUAUUACGGACU | -0.117 ± 0.11 | -0.611 ± 0.14 |
| AUAGAGCAAUAUUACGACCG | -2.9 ± 0.27 | -1.57 ± 0.43 |
| CGGGAGCAAUAUUACGCUUA | -2.19 ± 0.21 | -2.87 ± 0.43 |
| CUACAGCAAUAUUACGUUCC | -2.48 ± 0.22 |  |
| UUUCAGCAAUAUUACGAAUU | -1.67 ± 0.081 | -0.87 ± 0.12 |
| AUAAAGCAAUAUUACGUCAG | -1.6 ± 0.12 | -0.647 ± 0.12 |
| GCUUAGCAAUAUUACGAACC | -0.273 ± 0.23 | -0.336 ± 0.27 |
| AGGAAGCAAUAUUACGUAUC | -3.45 ± 0.22 | -2.88 ± 0.15 |
| GCAUAGCAAUAUUACGAGAG | -2.71 ± 0.27 | -2.35 ± 0.21 |
| GGCUAGCAAUAUUACGGGUA | -0.679 ± 0.12 | -0.368 ± 0.11 |
| CGAUAGCAAUAUUACGUAUC | -3.4 ± 0.3 |  |
| GAGAAGCAAUAUUACGAGGA | -3.83 ± 0.33 | -2.11 ± 0.19 |
| CAUCAGCAAUAUUACGAGUU | -4.08 ± 0.19 | -2.53 ± 0.12 |
| GAUAAGCAAUAUUACGGAAC | -3.85 ± 0.42 | -1.6 ± 0.18 |
| CGUAAGCAAUAUUACGAAAA | -3.49 ± 0.31 | -1.49 ± 0.16 |
| AACUAGCAAUAUUACGACUU | -0.0929 ± 0.069 | 0.236 ± 0.09 |
| CGGAAGCAAUAUUACGCAUG | -1.53 ± 0.13 | -0.32 ± 0.11 |
| CACAAGCAAUAUUACGCCCG | -0.276 ± 0.12 | 0.193 ± 0.15 |

| Sequence | self-splicing fitness (ln) (30 °C) | self-splicing fitness (ln) (37 °C) |
| --- | --- | --- |
| CCUGAGCAAUAUUACGUGAG | -3.61 ± 0.27 | -2.28 ± 0.24 |
| GUAUAGCAAUAUUACGCAAG | -3.76 ± 0.4 | -1.64 ± 0.25 |
| AGUUAGCAAUAUUACGCUCU | -1.37 ± 0.45 |  |
| AGAGAGCAAUAUUACGUAUG | -4.21 ± 0.24 | -3.33 ± 0.27 |
| CGUCAGCAAUAUUACGUGUG | -0.543 ± 0.059 | -0.104 ± 0.068 |
| AUGAAGCAAUAUUACGGAUU | -1.08 ± 0.078 | -0.689 ± 0.1 |
| GUAGAGCAAUAUUACGUCGA | -3.08 ± 0.17 | -0.919 ± 0.2 |
| CCGAAGCAAUAUUACGCAUU | -3.01 ± 0.2 | -3.77 ± 0.29 |
| CAGAAGCAAUAUUACGCAGA | -2.59 ± 0.22 | -2.55 ± 0.28 |
| GUCUAGCAAUAUUACGUGGG | -2.01 ± 0.12 | -1.64 ± 0.16 |
| AACCAGCAAUAUUACGGAAU | -2.06 ± 0.08 | -0.602 ± 0.091 |
| CGACAGCAAUAUUACGGAAC | -3.4 ± 0.19 | -2.74 ± 0.23 |
| GCUAAGCAAUAUUACGUCCU | -0.847 ± 0.14 | 0.223 ± 0.17 |
| UGAAAGCAAUAUUACGUCCC | -2.54 ± 0.45 |  |
| ACAGAGCAAUAUUACGGGGA | -4.66 ± 0.34 | -3.55 ± 0.25 |
| GAGAAGCAAUAUUACGACCG | -0.945 ± 0.32 | -0.457 ± 0.27 |
| GUAAAGCAAUAUUACGAGUA | -1.11 ± 0.12 | -0.624 ± 0.14 |
| UGUUAGCAAUAUUACGACCG | -0.238 ± 0.14 | 0.106 ± 0.14 |
| CUUUAGCAAUAUUACGGCAU | -3.42 ± 0.39 | -2.9 ± 0.4 |
| CAGGAGCAAUAUUACGUUUG | -3.14 ± 0.14 | -1.43 ± 0.14 |
| GAUUAGCAAUAUUACGUGAU | -3.04 ± 0.11 | -1.07 ± 0.091 |
| UUGAAGCAAUAUUACGACUA | 0.321 ± 0.098 | 0.141 ± 0.11 |
| UCACAGCAAUAUUACGGCUG | -3.35 ± 0.16 | -2.96 ± 0.23 |
| UCUCAGCAAUAUUACGGGAC | -2.31 ± 0.24 | -2.87 ± 0.38 |
| UGAAAGCAAUAUUACGCUUC | -2.32 ± 0.42 | -2.29 ± 0.29 |

| Sequence | self-splicing fitness (ln) (30 °C) | self-splicing fitness (ln) (37 °C) |
| --- | --- | --- |
| CGCAAGCAAUAUUACGAGAG | -2.52 ± 0.1 | -2.24 ± 0.15 |
| GUAGAGCAAUAUUACGCCUA | -1.39 ± 0.26 | -1.18 ± 0.24 |
| UGGCAGCAAUAUUACGAAGC |  | -1.72 ± 0.45 |
| AUCUAGCAAUAUUACGGCCA | -1.06 ± 0.12 | -0.879 ± 0.13 |
| AGCCAGCAAUAUUACGUAGU | -2.72 ± 0.12 | -1.83 ± 0.14 |
| GCACAGCAAUAUUACGGCUA | -0.204 ± 0.081 | -0.393 ± 0.085 |
| AGCCAGCAAUAUUACGCUCU | -1.94 ± 0.1 | -0.912 ± 0.13 |
| CAUCAGCAAUAUUACGUAUA | -1.68 ± 0.095 | -0.354 ± 0.11 |
| UAAGAGCAAUAUUACGUCAA | -3.41 ± 0.25 | -2.36 ± 0.18 |
| ACAGAGCAAUAUUACGGUUU | -3.11 ± 0.2 | -1.81 ± 0.16 |
| UAAGAGCAAUAUUACGGUUA | -1.12 ± 0.12 | -0.602 ± 0.1 |
| AAUGAGCAAUAUUACGUCCA | -2.41 ± 0.19 | -2.27 ± 0.3 |
| AGGAAGCAAUAUUACGACCA | -0.504 ± 0.06 | -0.317 ± 0.096 |
| UUGCAGCAAUAUUACGACCC |  | -0.535 ± 0.4 |
| CCACAGCAAUAUUACGUCAC | -3.34 ± 0.15 | -2.86 ± 0.22 |
| AUUGAGCAAUAUUACGGGUU | -3.92 ± 0.25 | -3.31 ± 0.21 |
| AUGCAGCAAUAUUACGACUU | 0.39 ± 0.068 | 0.224 ± 0.075 |
| UUAGAGCAAUAUUACGAUCA | -1.52 ± 0.16 | -0.808 ± 0.17 |
| GGUCAGCAAUAUUACGCCGU | -2.61 ± 0.16 | -0.39 ± 0.15 |
| UCACAGCAAUAUUACGGAGC | -2.68 ± 0.15 | -2.04 ± 0.22 |
| UCCUAGCAAUAUUACGGCAA | -2.22 ± 0.2 | -1.95 ± 0.19 |
| CAGUAGCAAUAUUACGCAUC |  | -1.82 ± 0.26 |
| UGUAAGCAAUAUUACGAGUC |  | -2.47 ± 0.33 |
| UGCAAGCAAUAUUACGACUC | -2.66 ± 0.18 | -1.56 ± 0.17 |
| AGCUAGCAAUAUUACGCUCU | -2.24 ± 0.18 | -1.57 ± 0.24 |

| Sequence | self-splicing fitness (ln) (30 °C) | self-splicing fitness (ln) (37 °C) |
| --- | --- | --- |
| CAUCAGCAAUAUUACGACUC | -1.82 ± 0.26 | -0.687 ± 0.23 |
| ACUGAGCAAUAUUACGCGCA | -3.04 ± 0.42 | -1.66 ± 0.36 |
| CAUCAGCAAUAUUACGAGUG | -2.26 ± 0.11 | -0.515 ± 0.1 |
| GUUGAGCAAUAUUACGAGGG | -2.7 ± 0.21 | -2.67 ± 0.24 |
| UCCCAGCAAUAUUACGCCGA | -0.426 ± 0.1 | 0.659 ± 0.13 |
| GCCCAGCAAUAUUACGCCGG | -3.34 ± 0.27 | -2.9 ± 0.47 |
| GCUAAGCAAUAUUACGUUAG | -2.7 ± 0.28 | -2.2 ± 0.28 |
| GCAUAGCAAUAUUACGUGGC | -2.72 ± 0.32 | -2.15 ± 0.31 |
| GUACAGCAAUAUUACGCCCU | -1.64 ± 0.34 | -0.525 ± 0.32 |
| CCGCAGCAAUAUUACGCGCU | -3.09 ± 0.21 | -2.01 ± 0.23 |
| AGGGAGCAAUAUUACGUGCA | -4.52 ± 0.34 | -2.5 ± 0.24 |
| GAAUAGCAAUAUUACGAAUC | -2.32 ± 0.14 | -0.98 ± 0.14 |
| UUUGAGCAAUAUUACGGCAA | -1.72 ± 0.18 | -0.742 ± 0.22 |
| GUAGAGCAAUAUUACGUGGU | -3.09 ± 0.28 | -3.52 ± 0.3 |
| AGACAGCAAUAUUACGUUAC | -3.81 ± 0.19 | -1.34 ± 0.17 |
| GCUAAGCAAUAUUACGUAAG | -0.616 ± 0.11 | 0.0143 ± 0.15 |
| UGCUAGCAAUAUUACGUGCU | -2.31 ± 0.16 | -2 ± 0.17 |
| AAGAAGCAAUAUUACGCCAU | -2.82 ± 0.24 | -2.62 ± 0.27 |
| CCGGAGCAAUAUUACGGAGC | -3.73 ± 0.48 | -2.55 ± 0.44 |
| AUUGAGCAAUAUUACGGUAA | -3.25 ± 0.22 | -2.53 ± 0.2 |
| GUCCAGCAAUAUUACGGCCA | -0.678 ± 0.13 | -0.279 ± 0.14 |
| GGAUAGCAAUAUUACGCUAU |  | -2.05 ± 0.31 |
| UGGCAGCAAUAUUACGGGAU | -2.84 ± 0.23 | -2.48 ± 0.23 |
